# Source: article PMC10388305, “Synthesis and Evaluation of a Monomethyl Auristatin E—Integrin αvβ6 Binding Peptide–Drug Conjugate for Tumor Targeted Drug Delivery” (Journal of Medicinal Chemistry, 2023)
# Read-outs that look alike come from different tables or passages of the source.
# How the values were obtained:
# MIA PaCa-2 (−) cells = assay: Cell binding assay, MIA PaCa-2; type: cell-based; settings: 1 h, 37 °C, γ-counter, n = 3
# Source text: (§1) Binding to cells with minimal to no expression of integrin αvβ6 was low at 4.4 ± 0.1% to DX3puro cells and 7.9 ± 0.4% to pancreatic MIA PaCa-2 cells. Binding of [^64Cu]PDC-1 to DX3puroβ6 (+) and BxPC-3 (+) was reduced by adding increasing amounts of DOTA-PDC-1, illustrating that the αvβ6-selective uptake could be blocked (Figure S3). Internalization of [^64Cu]-PDC-1 into cells was high with >50% of the bound radioactivity internalized for all cells expressing the integrin αvβ6. In comparison, cell binding of [^64Cu]2 to DX3puroβ6 (+) cells was 58.8 ± 2.3, and 3.3 ± 0.4% to the DX3puro (−) cells.
# (§2) Cell binding and internalization assay. Binding and internalization were determined as previously described. […] The fraction of bound radioactivity was determined with a γ-counter (by measuring cell pellet and combined supernatants). To determine the fraction of internalized radioactivity, the cells were re-pelleted, and re-suspended in acidic wash buffer (0.2 M sodium acetate, 0.5 M sodium chloride, pH = 2.5, 300 μL, 4 °C, 5 min) to release surface bound activity, followed by a wash with PBS (300 μL). The internalized fraction was determined with a γ-counter (cell pellet vs. radioactivity released into supernatant). A Wizard 1470 or Wizard 2 2470 automatic γ-counter (Perkin-Elmer, Waltham, MA) was used to measure radioactivity samples. […]
# [1] = Blocking biodistribution, paired DX3puroβ6/DX3puro model; type: in vivo, mice; settings: female, athymic nude, mouse, iv, total radioactivity, 4 h p.i., DOTA-2 (50 mg/kg, 205 nmol) i.v. 10 min prior, γ-counter, mean ± SD, n = 2
# Description: Aliquots of the formulated [^64Cu]PDC-1 in isotonic 0.9% saline (4.81–5.74 MBq, 1.7–2.1 μg, 0.26–0.31 nmol, 100 μL, pH 7.2) were injected i.v. as described above. Following the conscious uptake period, the mice were anesthetized (5% isoflurane), euthanized, and dissected (n ≥ 3/model/time point [4, 24, and 48 h]; the 48 h time point also included the imaging animals sacrificed after the PET scans). Tissues were collected, washed, weighed, and radioactivity measured in a γ-counter. Calibrated, decay-corrected radioactivity was expressed as the percentage of injected dose per gram of tissue (% ID/g). Data are reported as mean ± SD. The mean weights and standard deviation of the DX3puroβ6/DX3puro paired tumor model biodistribution mice were 24.3 ± 1.4 g at 4 h, 28.2 ± 2.9 g at 24 h, and 27.7 ± 2.6 g at 48 h. The mean weights and standard deviation of the BxPC-3 tumor model biodistribution mice were 25.1 ± 1.9 g at 4 h, 27.0 ± 1.1 g at 24 h and 27.1 ± 3.2 g at 48 h. For in vivo blocking studies, DOTA-2 (50 mg/kg, 205 nmol, 1.4 mg in 100 μL 0.9% saline) was injected i.v. into two animals/tumor model 10 min prior to [^64Cu]PDC-1. The animals were sacrificed after 4 h, tissues collected, washed, weighed, and radioactivity measured in a γ-counter. The mean weights and standard deviation for the blocking mice were 24.6 ± 0 and 27.9 ± 0.3 g for the DX3puroβ6/DX3puro paired and BxPC-3 tumor models, respectively.
# Blocking biodistribution data of [64Cu]PDC-1 in paired DX3puroβ6/DX3puro and BxPC-3 tumor models.
# Tumor Model DX3puroβ6/DX3puro BxPC-3
# Table S6. Blocking biodistribution data of [ 64Cu]PDC-1 in paired DX3puroβ6/DX3puro and BxPC-3 tumor
# models. Tissue uptake is expressed as the mean of the percentage of injected dose per gram of tissue ±
# SD (n = 2/model, n/a = not applicable. P = 0.53 for DX3puroβ6 vs. DX3puro; P = 0.52 for BxPC-3 vs.
# BxPC-3 (+) cells = assay: Cell binding assay, BxPC-3; type: cell-based; settings: 1 h, 37 °C, γ-counter, n = 3
# Source text: as §1, §2
compound,measurement,setting,value
"CC[C@H](C)[C@@H]([C@@H](CC(=O)N1CCC[C@H]1[C@H](OC)[C@@H](C)C(=O)N[C@H](C)[C@@H](O)c1ccccc1)OC)N(C)C(=O)[C@@H](NC(=O)[C@H](C(C)C)N(C)C(=O)OCc1ccc(NC(=O)[C@H](CCCNC(N)=O)NC(=O)[C@@H](NC(=O)CCOCCOCCNC(=O)CCN2C(=O)CC(SC[C@H](NC(=O)CN3CCN(CC(=O)O)CCN(CC(=O)O)CCN(CC(=O)O)CC3)C(=O)NCCOCCOCCOCCOCCOCCOCCOCCOCCOCCOCCOCCOCCOCCOCCOCCOCCOCCOCCOCCOCCOCCOCCOCCOCCOCCOCCOCCOCCC(=O)N[C@@H](CC(N)=O)C(=O)N[C@@H](C)C(=O)N[C@H](C(=O)N3CCC[C@H]3C(=O)N[C@@H](CC(N)=O)C(=O)N[C@@H](CC(C)C)C(=O)N[C@@H](CCCNC(=N)N)C(=O)NCC(=O)N[C@@H](CC(=O)O)C(=O)N[C@@H](CC(C)C)C(=O)N[C@@H](CCC(N)=O)C(=O)N[C@H](C(=O)N[C@@H](CC(C)C)C(=O)N[C@@H](C)C(=O)N[C@@H](CCC(N)=O)C(=O)N[C@@H](CCCNC(=N)N)C(=O)N[C@H](C(=O)N[C@@H](C)C(=O)N[C@@H](CCCNC(=N)N)C(=O)N[C@H](C(=O)NCCOCCOCCOCCOCCOCCOCCOCCOCCOCCOCCOCCOCCOCCOCCOCCOCCOCCOCCOCCOCCOCCOCCOCCOCCOCCOCCOCCOCCC(N)=O)[C@@H](C)O)C(C)C)C(C)C)C(C)C)C2=O)C(C)C)cc1)C(C)C (stereo partly shown) [[^64Cu]PDC-1, metal not drawn]",Cell binding,MIA PaCa-2 (−) cells,7.9 ± 0.4%
same,tissue uptake at 4 h,"[1]; DX3puro (αvβ6 −) tumor, read-out: Tumor (αvβ6 −) DX3puro uptake, blocked",0.42 ± 0.04 %ID/g
same,tissue uptake at 4 h,"[1]; DX3puroβ6 (αvβ6 +) tumor, read-out: Tumor (αvβ6 +) DX3puroβ6 uptake, blocked",0.39 ± 0.04 %ID/g
same,tissue uptake at 4 h,"[1]; blood, read-out: Blood uptake, blocked",0.08 ± 0.02 %ID/g
same,tissue uptake at 4 h,"[1]; bone, read-out: Bone uptake, blocked",0.1 ± 0.03 %ID/g
same,tissue uptake at 4 h,"[1]; brain, read-out: Brain uptake, blocked",0.02 %ID/g
same,tissue uptake at 4 h,"[1]; gall bladder, read-out: Gall Bladder uptake, blocked",0.28 ± 0.4 %ID/g
same,tissue uptake at 4 h,"[1]; heart, read-out: Heart uptake, blocked",0.17 ± 0.03 %ID/g
same,tissue uptake at 4 h,"[1]; kidney, read-out: Kidney uptake, blocked",36.4 ± 5.43 %ID/g
same,tissue uptake at 4 h,"[1]; large intestines, read-out: Large Intestines uptake, blocked",0.51 ± 0.1 %ID/g
same,tissue uptake at 4 h,"[1]; liver, read-out: Liver uptake, blocked",1.39 ± 0.45 %ID/g
same,tissue uptake at 4 h,"[1]; lung, read-out: Lung uptake, blocked",0.39 ± 0.09 %ID/g
same,tissue uptake at 4 h,"[1]; muscle, read-out: Muscle uptake, blocked",0.04 %ID/g
same,tissue uptake at 4 h,"[1]; pancreas, read-out: Pancreas uptake, blocked",0.08 ± 0.01 %ID/g
same,tissue uptake at 4 h,"[1]; skin, read-out: Skin uptake, blocked",0.29 ± 0.02 %ID/g
same,tissue uptake at 4 h,"[1]; small intestines, read-out: Small Intestines uptake, blocked",0.36 ± 0.02 %ID/g
same,tissue uptake at 4 h,"[1]; spleen, read-out: Spleen uptake, blocked",0.19 ± 0.01 %ID/g
same,tissue uptake at 4 h,"[1]; stomach, read-out: Stomach uptake, blocked",0.27 ± 0.06 %ID/g
same,Cell binding,BxPC-3 (+) cells,62.0 ± 1.0%
